Target: DLL4 (human, UniProt Q9NR61)
Test: ELISA

Sequence of DLL4 (Q9NR61 27-524): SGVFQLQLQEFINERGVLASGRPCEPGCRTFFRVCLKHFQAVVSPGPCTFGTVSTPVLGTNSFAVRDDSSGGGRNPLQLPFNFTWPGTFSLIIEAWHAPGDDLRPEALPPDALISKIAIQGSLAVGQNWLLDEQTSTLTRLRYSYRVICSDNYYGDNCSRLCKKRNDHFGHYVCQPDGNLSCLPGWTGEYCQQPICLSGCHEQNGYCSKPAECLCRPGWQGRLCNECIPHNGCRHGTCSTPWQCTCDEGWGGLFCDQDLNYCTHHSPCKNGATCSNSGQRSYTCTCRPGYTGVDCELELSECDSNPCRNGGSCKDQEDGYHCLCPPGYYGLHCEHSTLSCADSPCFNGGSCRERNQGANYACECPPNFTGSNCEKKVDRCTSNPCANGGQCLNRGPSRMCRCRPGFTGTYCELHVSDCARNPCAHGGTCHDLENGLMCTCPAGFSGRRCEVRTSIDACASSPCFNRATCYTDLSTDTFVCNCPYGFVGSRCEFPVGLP

EC50 | Binder
0.09 nM | DVD523 DLL4 arm (antibody, V domains shown, DVD-Ig outer) VH: EVQLQQSGPELEKPGASVKISCKASGYSFTGYNMNWVKQSNGKSLEWIGNIDPYFGGTNYNQKFKGKATLTVDKSSSTAYMQLKSLTSEDSAVYYCARNYDYDGGCFDYWGQGTTLTVSS VL: QAVVTQESALTTSPGETVTLTCRSSTGAVTTSNYANWVQEKPDHLFTGLIGGTNNRAPGVPARFSGSLIGDKAALTITGAQTEDEAIYFCALWYSNHWVFGGGTKLTVLG
1.43 nM | DVD532 DLL4 arm (antibody, V domains shown, DVD-Ig inner) VH: EVQLQQSGPELEKPGASVKISCKASGYSFTGYNMNWVKQSNGKSLEWIGNIDPYFGGTNYNQKFKGKATLTVDKSSSTAYMQLKSLTSEDSAVYYCARNYDYDGGCFDYWGQGTTLTVSS VL: QAVVTQESALTTSPGETVTLTCRSSTGAVTTSNYANWVQEKPDHLFTGLIGGTNNRAPGVPARFSGSLIGDKAALTITGAQTEDEAIYFCALWYSNHWVFGGGTKLTVLG
1.57 nM | DVD526 DLL4 arm (antibody, V domains shown, DVD-Ig inner) VH: EVQLQQSGPELEKPGASVKISCKASGYSFTGYNMNWVKQSNGKSLEWIGNIDPYFGGTNYNQKFKGKATLTVDKSSSTAYMQLKSLTSEDSAVYYCARNYDYDGGCFDYWGQGTTLTVSS VL: QAVVTQESALTTSPGETVTLTCRSSTGAVTTSNYANWVQEKPDHLFTGLIGGTNNRAPGVPARFSGSLIGDKAALTITGAQTEDEAIYFCALWYSNHWVFGGGTKLTVLG
1 nM | DVD525 DLL4 arm (antibody, V domains shown, DVD-Ig outer) VH: EVQLQQSGPELEKPGASVKISCKASGYSFTGYNMNWVKQSNGKSLEWIGNIDPYFGGTNYNQKFKGKATLTVDKSSSTAYMQLKSLTSEDSAVYYCARNYDYDGGCFDYWGQGTTLTVSS VL: QAVVTQESALTTSPGETVTLTCRSSTGAVTTSNYANWVQEKPDHLFTGLIGGTNNRAPGVPARFSGSLIGDKAALTITGAQTEDEAIYFCALWYSNHWVFGGGTKLTVLG
0.1 nM | DVD511 DLL4 arm (antibody, V domains shown, DVD-Ig outer) VH: EVQLQQSGPELEKPGASVKISCKASGYSFTGYNMNWVKQSNGKSLEWIGNIDPYFGGTNYNQKFKGKATLTVDKSSSTAYMQLKSLTSEDSAVYYCARNYDYDGGCFDYWGQGTTLTVSS VL: QAVVTQESALTTSPGETVTLTCRSSTGAVTTSNYANWVQEKPDHLFTGLIGGTNNRAPGVPARFSGSLIGDKAALTITGAQTEDEAIYFCALWYSNHWVFGGGTKLTVLG
0.06 nM | DVD493 DLL4 arm (antibody, V domains shown, DVD-Ig outer) VH: EVQLQQSGPELVKPGASVKMSCKASGYTFTSYVINWVKQKPGQGLEWIGLINPYNDGTKYNEKFKVKATLTSDKSSSTAYMELSSLTSEDSAVYYCASYYYGSRYYFDYWGQGTTLTVSS VL: DIQMTQSSSYLSVSLGGRVTITCKASDHINNWLAWYQQKPGNAPRLLISGATSLETGVPSRFSGSGSGKDYTLSITSLQTEDVATYYCQQYWSIPLTFGAGTKLELKR
0.45 nM | DVD498 DLL4 arm (antibody, V domains shown, DVD-Ig inner) VH: EVQLQQSGPELVKPGASVKMSCKASGYTFTSYVINWVKQKPGQGLEWIGLINPYNDGTKYNEKFKVKATLTSDKSSSTAYMELSSLTSEDSAVYYCASYYYGSRYYFDYWGQGTTLTVSS VL: DIQMTQSSSYLSVSLGGRVTITCKASDHINNWLAWYQQKPGNAPRLLISGATSLETGVPSRFSGSGSGKDYTLSITSLQTEDVATYYCQQYWSIPLTFGAGTKLELKR
0.09 nM | DVD505 DLL4 arm (antibody, V domains shown, DVD-Ig outer) VH: EVQLQQSGPELVKPGASVKMSCKASGYTFTSYVINWVKQKPGQGLEWIGLINPYNDGTKYNEKFKVKATLTSDKSSSTAYMELSSLTSEDSAVYYCASYYYGSRYYFDYWGQGTTLTVSS VL: DIQMTQSSSYLSVSLGGRVTITCKASDHINNWLAWYQQKPGNAPRLLISGATSLETGVPSRFSGSGSGKDYTLSITSLQTEDVATYYCQQYWSIPLTFGAGTKLELKR
0.42 nM | DVD510 DLL4 arm (antibody, V domains shown, DVD-Ig inner) VH: EVQLQQSGPELVKPGASVKMSCKASGYTFTSYVINWVKQKPGQGLEWIGLINPYNDGTKYNEKFKVKATLTSDKSSSTAYMELSSLTSEDSAVYYCASYYYGSRYYFDYWGQGTTLTVSS VL: DIQMTQSSSYLSVSLGGRVTITCKASDHINNWLAWYQQKPGNAPRLLISGATSLETGVPSRFSGSGSGKDYTLSITSLQTEDVATYYCQQYWSIPLTFGAGTKLELKR
0.36 nM | DVD449 DLL4 arm (antibody, V domains shown, DVD-Ig outer) VH: QVQLVQSGAEVKKPGASVKISCKASGYSFTAYYIHWVKQAPGQGLEWIGYISSYNGATNYNQKFKGRVTFTTDTSTSTAYMELRSLRSDDTAVYYCARDYDYDVGMDYWGQGTLVTVSS VL: DIVMTQSPDSLAVSLGERATISCRASESVDNYGISFMKWFQQKPGQPPKLLIYAASNQGSGVPDRFSGSGSGTDFTLTISSLQAEDVAVYYCQQSKEVPWTFGGGTKVEIKR
0.04 nM | DVD441 DLL4 arm (antibody, V domains shown, DVD-Ig outer) VH: QVQLVQSGAEVKKPGASVKISCKASGYSFTAYYIHWVKQAPGQGLEWIGYISSYNGATNYNQKFKGRVTFTTDTSTSTAYMELRSLRSDDTAVYYCARDYDYDVGMDYWGQGTLVTVSS VL: DIVMTQSPDSLAVSLGERATISCRASESVDNYGISFMKWFQQKPGQPPKLLIYAASNQGSGVPDRFSGSGSGTDFTLTISSLQAEDVAVYYCQQSKEVPWTFGGGTKVEIKR
7.99 nM | DVD462 DLL4 arm (antibody, V domains shown, DVD-Ig inner) VH: QVQLVQSGAEVKKPGASVKISCKASGYSFTAYYIHWVKQAPGQGLEWIGYISSYNGATNYNQKFKGRVTFTTDTSTSTAYMELRSLRSDDTAVYYCARDYDYDVGMDYWGQGTLVTVSS VL: DIVMTQSPDSLAVSLGERATISCRASESVDNYGISFMKWFQQKPGQPPKLLIYAASNQGSGVPDRFSGSGSGTDFTLTISSLQAEDVAVYYCQQSKEVPWTFGGGTKVEIKR
0.57 nM | DVD465 DLL4 arm (antibody, DVD-Ig outer) chain 1: EVQLVESGGGLVQPGGSLRLSCAASGFTFTDNWISWVRQAPGKGLEWVGYISPNSGFTYYADSVKGRFTISADTSKNTAYLQMNSLRAEDTAVYYCARDNFGGYFDYWGQGTLVTVSS chain 2: DIQMTQSPSSLSASVGDRVTITCRASQDVSTAVAWYQQKPGKAPKLLIYSASFLYSGVPSRFSGSGSGTDFTLTISSLQPEDFATTYYCQQSYTGTVTFGQGTKVEIKR
19.8 nM | DVD466 DLL4 arm (antibody, DVD-Ig inner) chain 1: EVQLVESGGGLVQPGGSLRLSCAASGFTFTDNWISWVRQAPGKGLEWVGYISPNSGFTYYADSVKGRFTISADTSKNTAYLQMNSLRAEDTAVYYCARDNFGGYFDYWGQGTLVTVSS chain 2: DIQMTQSPSSLSASVGDRVTITCRASQDVSTAVAWYQQKPGKAPKLLIYSASFLYSGVPSRFSGSGSGTDFTLTISSLQPEDFATTYYCQQSYTGTVTFGQGTKVEIKR
2.78 nM | DVD469 DLL4 arm (antibody, DVD-Ig outer) chain 1: EVQLVESGGGLVQPGGSLRLSCAASGFTFTDNWISWVRQAPGKGLEWVGYISPNSGFTYYADSVKGRFTISADTSKNTAYLQMNSLRAEDTAVYYCARDNFGGYFDYWGQGTLVTVSS chain 2: DIQMTQSPSSLSASVGDRVTITCRASQDVSTAVAWYQQKPGKAPKLLIYSASFLYSGVPSRFSGSGSGTDFTLTISSLQPEDFATTYYCQQSYTGTVTFGQGTKVEIKR
0.63 nM | DVD483 DLL4 arm (antibody, DVD-Ig outer) chain 1: EVQLVESGGGLVQPGGSLRLSCAASGFTFTDNWISWVRQAPGKGLEWVGYISPNSGFTYYADSVKGRFTISADTSKNTAYLQMNSLRAEDTAVYYCARDNFGGYFDYWGQGTLVTVSS chain 2: DIQMTQSPSSLSASVGDRVTITCRASQDVSTAVAWYQQKPGKAPKLLIYSASFLYSGVPSRFSGSGSGTDFTLTISSLQPEDFATTYYCQQSYTGTVTFGQGTKVEIKR
